Target: Ronin (protein product of the cDNA clone from the human ES cell cDNA expression library) (UniProt Q96EK4)
UniProt Q96EK4, sequence (Q96EK4 whole entry): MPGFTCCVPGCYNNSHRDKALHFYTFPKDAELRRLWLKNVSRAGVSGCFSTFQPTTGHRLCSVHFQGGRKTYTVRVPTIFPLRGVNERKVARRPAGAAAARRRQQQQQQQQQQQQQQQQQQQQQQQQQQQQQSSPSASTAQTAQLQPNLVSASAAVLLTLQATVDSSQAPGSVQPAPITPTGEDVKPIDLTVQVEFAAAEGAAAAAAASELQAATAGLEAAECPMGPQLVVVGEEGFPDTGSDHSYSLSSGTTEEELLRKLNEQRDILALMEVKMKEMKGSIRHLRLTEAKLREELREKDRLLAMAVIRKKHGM

Q: “Caspase-3 (as used in the in vitro transcription/translation Caspase-3 cleavage assay)” was tested. Which “in vitro transcription/translation Caspase-3 cleavage assay” value did it give?
A: The value was “proved to be an authentic target of Caspase-3 in further analyses”.

— patent US20110201109
